Results: US20060002928A1

Columns and labels:
murine B7-DC (murine) [1] = biological target: murine B7-DC (murine) (UniProt Q9WUL5); test: flow cytometry competition on murine bone marrow derived DC; preincubation with PD-1.Ig, staining with sHIgM12 as competitor read out
murine B7-DC (murine) [2] = biological target: murine B7-DC (murine) (UniProt Q9WUL5); test: cell-based or functional assay
murine B7-DC (murine) [3] = biological target: murine B7-DC (murine) (UniProt Q9WUL5); test: flow cytometry on 293T cells transfected with murine B7-DC
murine B7-DC (murine) [4] = biological target: murine B7-DC (murine) (UniProt Q9WUL5); test: flow cytometry competition on murine DC; preincubation with sHIgM12, staining with PD-1.Ig as competitor read out

murine B7-DC (murine), sequence (Q9WUL5 20-247): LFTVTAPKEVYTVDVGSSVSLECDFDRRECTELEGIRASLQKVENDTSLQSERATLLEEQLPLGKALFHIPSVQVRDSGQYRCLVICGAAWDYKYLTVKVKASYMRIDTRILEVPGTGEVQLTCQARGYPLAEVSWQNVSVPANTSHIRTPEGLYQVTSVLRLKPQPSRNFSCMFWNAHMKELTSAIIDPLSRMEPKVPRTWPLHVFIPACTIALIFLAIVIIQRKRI

sHIgM12 staining left, percent of the level without PD-1 (murine B7-DC (murine) [1]) [%] | GFP+, CD11c+ DC recovered from draining lymph nodes after adoptive transfer (murine B7-DC (murine) [2]) [fold] | IL-12 p70 release by DC (ELISA of culture supernatants) (murine B7-DC (murine) [2]) [fold] | ability of lymph node DC to induce an antigen-specific T cell response (murine B7-DC (murine) [2]) [fold] | percentage of cellular metabolism (Alamar Blue) maintained 24 hours after cytokine withdrawal from DC (murine B7-DC (murine) [2]) [%] | percent of transfected cells stained (murine B7-DC (murine) [3]) [%] | PD-1 binding left, percent of the level without sHIgM12 (murine B7-DC (murine) [4]) [%] | Substance
50 |  |  |  |  |  |  | PD-1.Ig fusion protein (Fc fusion)
 | 5 | 3 | 10 | 80 | 97 | 20 | sHIgM12 (human monoclonal IgM antibody, pentameric, purified from patient serum)
